Reference: US20110129459A1 (Chugai, published 2011)
Changes are numbered by the printed parent chain.

T1: rhNR10 (recombinant human NR10) (human, UniProt Q8NI17 20-519, limits assumed)
T1 construct: also called IL-31 receptor; IL31RA
T1 sequence: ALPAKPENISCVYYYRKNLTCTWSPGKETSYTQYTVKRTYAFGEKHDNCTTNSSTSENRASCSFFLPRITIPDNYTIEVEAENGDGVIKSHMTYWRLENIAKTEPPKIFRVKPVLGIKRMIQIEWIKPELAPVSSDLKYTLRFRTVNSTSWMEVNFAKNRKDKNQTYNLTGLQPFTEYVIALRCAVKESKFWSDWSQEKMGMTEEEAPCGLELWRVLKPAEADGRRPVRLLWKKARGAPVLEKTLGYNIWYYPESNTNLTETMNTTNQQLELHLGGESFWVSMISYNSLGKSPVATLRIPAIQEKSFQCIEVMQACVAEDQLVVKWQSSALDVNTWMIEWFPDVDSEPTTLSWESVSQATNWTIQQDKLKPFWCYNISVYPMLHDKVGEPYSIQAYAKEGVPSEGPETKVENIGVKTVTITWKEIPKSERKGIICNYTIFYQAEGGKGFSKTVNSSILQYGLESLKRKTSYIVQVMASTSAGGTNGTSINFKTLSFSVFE

T2: cytoplasmic domain-lacking human NR10 on CHO cells (hNR10-expressing CHO cells) (human, UniProt Q8NI17 20-553)
T2 construct: also called NR10-expressing cells
T2 sequence: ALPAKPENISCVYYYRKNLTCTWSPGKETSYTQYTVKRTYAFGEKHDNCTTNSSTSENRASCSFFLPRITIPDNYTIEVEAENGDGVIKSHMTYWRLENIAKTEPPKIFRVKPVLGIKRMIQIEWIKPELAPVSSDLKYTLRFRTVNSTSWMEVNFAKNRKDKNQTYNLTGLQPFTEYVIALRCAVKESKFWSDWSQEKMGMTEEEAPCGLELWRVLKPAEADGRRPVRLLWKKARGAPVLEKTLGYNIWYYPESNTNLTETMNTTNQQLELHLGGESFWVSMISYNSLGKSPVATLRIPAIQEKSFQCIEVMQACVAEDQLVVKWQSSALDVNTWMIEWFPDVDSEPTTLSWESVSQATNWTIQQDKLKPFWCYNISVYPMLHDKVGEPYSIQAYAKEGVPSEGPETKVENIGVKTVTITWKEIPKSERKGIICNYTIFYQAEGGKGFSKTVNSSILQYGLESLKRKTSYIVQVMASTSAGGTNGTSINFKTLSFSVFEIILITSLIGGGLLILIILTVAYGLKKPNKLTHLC

B1: H30L17 (H30-M58 / L17) (antibody, V domains shown)
VH: QVQLVQSGAEVKKPGASVKVSCKASGYTFTGYIMNWVRQAPGQGLEWMGLINPYNGGTDYNPQFQDRVTITADESTSTAYMELSSLRSEDTAVYYCARDGYDDGPYTLETWGQGTLVTVSS
VL: DIQMTQSPSSLSASVGDRVTITCQASEDIYSFVAWYQQKPGKAPKLLIYNAQTEAQGVPSRFSGSGSGTDFTLTISSLQPEDFATYYCQHHYDSPLTFGGGTKVEIKR
B2: H42L17 (H42-M58 / L17) (antibody, V domains shown)
VH: B1 VH with I33V, M34L, E74K
VL: B1 VL
B3: H46L17 (H46-M58 / L17) (antibody, V domains shown)
VH: B1 VH with I33A, E74K
VL: B1 VL
B4: H57L17 (H57-M58 / L17) (antibody, V domains shown)
VH: B1 VH with D66G
VL: B1 VL
B5: H71L17 (H71-M58 / L17) (antibody, V domains shown)
VH: B1 VH with I33A, D66G
VL: B1 VL
B6: H97L50 (H97-M58 / L50) (antibody, V domains shown)
VH: B1 VH with D59S, P62Q
VL: B1 VL with V33L
B7: H98L50 (H98-M58 / L50) (antibody, V domains shown)
VH: B1 VH with D59S, P62Q, E74K
VL: B1 VL with V33L
B8: H78L17 (H78-M58 / L17) (antibody, V domains shown)
VH: B1 VH with D66G, E74K
VL: B1 VL
B9: H92L17 (H92-M58 / L17) (antibody, V domains shown)
VH: B1 VH with I33A, D66G, E74K
VL: B1 VL
B10: H34L17 (H34-M58 / L17) (antibody, V domains shown)
VH: B1 VH with I33A
VL: B1 VL
B11: H28L17 (H28-M58 / L17) (antibody, V domains shown)
VH: B1 VH with I33V, M34L
VL: B1 VL
B12: H0La130 (H0-SKSC / La130) (antibody, V domains shown)
VH: B1 VH with D59S, P62Q, Q63K, Q65K, D66G, L108M, E109D, T110Y
VL: B1 VL with Q24R, A25T, D28N, S31R, Q52K, E54L, Q56K, D93E
B13: Ha219L0 (Ha219-SKSC / L0) (antibody, V domains shown)
VH: B1 VH with D59S, Q63K, Q65K, D66G, L108M, E109D, T110Y
VL: B1 VL with Q24R, A25T, D28N, V33L, Q52K, E54L, Q56K, D93E
B14: Ha103L0 (Ha103-SKSC / L0) (antibody, V domains shown)
VH: B1 VH with M34I, D59S, P62Q, Q63K, Q65K, D66G, L108M, E109D, T110Y
VL: B1 VL with Q24R, A25T, D28N, V33L, Q52K, E54L, Q56K, D93E
B15: Ha204L0 (Ha204-SKSC / L0) (antibody, V domains shown)
VH: B1 VH with P62Q, Q63K, Q65K, D66G, L108M, E109D, T110Y
VL: B1 VL with Q24R, A25T, D28N, V33L, Q52K, E54L, Q56K, D93E
B16: H0La326 (H0-SKSC / La326) (antibody, name in Kabat numbering, V domains shown)
VH: B1 VH with D59S, P62Q, Q63K, Q65K, D66G, L108M, E109D, T110Y
VL: B1 VL with Q24R, A25T, D28N, V33L, Q52K, E54L, Q56K, D93E, T97F
B17: Ha111L0 (Ha111-SKSC / L0) (antibody, V domains shown)
VH: B1 VH with M34L, D59S, P62Q, Q63K, Q65K, D66G, L108M, E109D, T110Y
VL: B1 VL with Q24R, A25T, D28N, V33L, Q52K, E54L, Q56K, D93E
B18: H0La303 (H0-SKSC / La303) (antibody, V domains shown)
VH: B1 VH with D59S, P62Q, Q63K, Q65K, D66G, L108M, E109D, T110Y
VL: B1 VL with Q24R, A25T, D28N, V33L, Q52K, E54L, Q56K
notes: also called Ls303
B19: Ha101L0 (Ha101-SKSC / L0) (antibody, V domains shown)
VH: B1 VH with I33V, D59S, P62Q, Q63K, Q65K, D66G, L108M, E109D, T110Y
VL: B1 VL with Q24R, A25T, D28N, V33L, Q52K, E54L, Q56K, D93E
B20: H0La328 (H0-SKSC / La328) (antibody, V domains shown)
VH: B1 VH with D59S, P62Q, Q63K, Q65K, D66G, L108M, E109D, T110Y
VL: B1 VL with Q24R, A25T, D28N, V33L, Q52K, E54L, Q56K, D93E, S94D
B21: H0La134 (H0-SKSC / La134) (antibody, V domains shown)
VH: B1 VH with D59S, P62Q, Q63K, Q65K, D66G, L108M, E109D, T110Y
VL: B1 VL with Q24R, A25T, D28N, S31R, V33L, Q52K, E54L, Q56K, D93E
B22: Hp1 variant of H0L0 (antibody, V domains shown)
VH: B1 VH with D59S, P62Q, Q63K, D66G, L108M, E109D, T110Y
VL: DIQMTQSPSSLSASVGDRVTITCRTSENIYSFLAWYQQKPGKAPKLLIYNAKTLAKGVPSRFSGSGSGTDFTLTISSLQPEDFATYYCQHHYESPLTFGGGTKVEIK
B23: Lp6 variant of H0L0 (antibody, V domains shown)
VH: B1 VH with D59S, P62Q, Q63K, Q65K, D66G, L108M, E109D, T110Y
VL: B1 VL with Q24R, A25T, D28N, V33L, Q52K, E54L, Q56D, D93E
notes: copies: 2 + 2
B24: Lp5 variant of H0L0 (antibody, V domains shown)
VH: B1 VH with D59S, P62Q, Q63K, Q65K, D66G, L108M, E109D, T110Y
VL: B1 VL with Q24R, A25T, D28N, V33L, Q52K, E54L, D93E
notes: copies: 2 + 2

Biological target: T1, rhNR10 (recombinant human NR10)
Test: SPR, Biacore T100; antibody captured on Protein A, rhNR10 as analyte
Procedure: (§1) Kinetic analysis of the antigen-antibody reaction was carried out using Biacore T100 (GE Healthcare Biosciences). The antigen-antibody interaction was measured by immobilizing rec-Protein A (hereinafter Protein A) (ZYMED) onto a sensor chip, capturing an antibody on the immobilized Protein A, and then reacting the antigen as an analyte. Various concentrations of rhNR10 were used as the antigen. The kinetic parameters, association rate constant kₐ (1/Ms) and dissociation rate constant kd (1/s), were calculated from the sensorgrams obtained by the measurement. Then, KD (M) was determined based on the rate constants. Each parameter was determined using Biacore T100 Evaluation Software version 1.1 (GE Healthcare Biosciences).
(§2) The running buffer used was HBS-EP+. Each antibody was prepared at 0.25 μg/ml, or prepared so that about 100 RU would bind to Protein A. rhNR10 used as an analyte was prepared at 0, 38.5, 77.0, and 154 nM, or at 0, 19.25, and 77.01 nM using HBS-EP+. In the measurement, first, the antibody solution was captured on Protein A, and an analyte solution was reacted at a flow rate of 20 μL/min for three minutes. Then, the solution was switched to HBS-EP+, and the dissociation phase was measured for five minutes. After measurement of the dissociation phase, the sensor chip was regenerated by washing with 10 mM glycine-HCl (pH 1.5). The obtained sensorgrams were kinetically analyzed using the Biacore-specific data analysis software, Biacore T100 Evaluation Software Version 1.1.

Kd [nM]	koff [s⁻¹]	kon [M⁻¹ s⁻¹]	Binder
0.83	0.00057	680000	B1
0.65	0.00037	570000	B2
4.6	0.0013	290000	B3
0.77	0.00055	710000	B4
3.3	0.0012	370000	B5
3.5	0.0013	360000	B6
4.6	0.0013	290000	B7
1.1	0.0007	610000	B8
4.1	0.0013	310000	B9
3.6	0.0012	340000	B10
0.52	0.00033	640000	B11

Biological target: T1, rhNR10 (recombinant human NR10)
Test: as above
Remark: another data set of the same source
Procedure: as §1, §2

Kd [nM]	koff [s⁻¹]	kon [M⁻¹ s⁻¹]	Binder
1.5	0.0004	260000	B12
3	0.00096	320000	B13
2.4	0.00053	220000	B14
1.3	0.00048	370000	B15
3.7	0.00052	140000	B16
2.1	0.00056	260000	B17
2.1	0.00046	220000	B18
1.5	0.00031	200000	B19
2.9	0.00052	180000	B20
1.8	0.00044	250000	B21

Biological target: T2, cytoplasmic domain-lacking human NR10 …
Test: FMAT competition on hNR10-expressing CHO cells: antibody titrated against FMAT Blue-labeled hIL-31; FL1 = cell-bound labeled hIL-31; mean±S.D. (n=3)
Procedure: Antibodies were assessed for the activity of inhibiting the IL-31/NR10 binding by using hNR10-expressing CHO cells as described below. The chimeric NS22 antibody and NS22_H0L0 (H chain, H0-SKSC/SEQ ID NO: 54; L chain, L0/SEQ ID NO: 56) were diluted at an appropriate concentration using Assay buffer (10 mM HEPES, 140 mM NaCl, 2.5 mM CaCl₂, 3 mM MgCl₂, 2% FBS, 0.01% NaN₃, pH7.4), and further eight serial dilutions were prepared at a common dilution ration of 2. The dilutions were added at 40 μl/well to plates (96-Well FMAT Plates, Applied Biosystems). Then, FMAT Blue-labeled hIL-31 was diluted 400 times with Assay buffer, and added at 20 μl/well. Finally, a cell suspension adjusted to 2.5×10⁵ cells/ml using Assay buffer was added at 40 μl/well (final 1×10⁴ cells/well). Two hours after addition of cells, the fluorescence (FL1) was measured using the 8200 Cellular Detection System (Applied Biosystems).
Each variant was tested for the activity of inhibiting the hIL-31/hNR10 binding by using FMAT. The test was carried out according to the method as described in Example 4.

binding result	Binder
binds	B22
binds	B23
binds	B24
